The nature of data set [1]: Absorption spectra, spin shift upon incubation with substrate. Particulars: 3 uM purified P450; incubation with ethane or octane. The data set is classed as binding. As for the experimental part:
The absorption spectra for 53-5H and 35-E11 were taken using a 3 uM solution of purified P450 in a quartz cuvette. Upon incubation with ethane, no shift in equilibrium from low- (Amax at 418 nm) to high-spin (Amax at 390 nm) configuration of the ferric P450 was observed.

The nature of data set [2]: Halomethane reactions (formaldehyde, PFBHA, GC-ECD): bromomethane. The data set is classed as biochemical. As for the experimental part: Halomethane reactions: Reactions with chloromethane, bromomethane, and iodomethane were carried out in 1 mL-scale using halomethane-saturated buffer (100 mM phosphate pH 8.0) and 50-500 nM purified protein. 900 μL buffer were added with protein, incubated for 15 seconds, and then added with 100 μL NADPH regeneration solution (100 units/mL IDH, 70 mg/mL isocitrate, 1.5 mg/ml NADP+). Solution were sealed and stirred for 30 minutes at 25° C. To reduce background levels of formaldehyde to a minimum, buffers were prepared using HPLC-grade water and autoclaved twice prior to use. Formaldehyde concentration in the reaction solutions was determined through derivatization with o-(2,3,4,5,6-pentafluorobenzyl)hydroxylamine hydrochloride (PFBHA) and gas chromatography. […] Organic phase was removed, diluted 1/100 v/v, and analyzed on a Shimadzu GC-17A gas chromatograph. […] Quantification was carried out using a calibration curve and solutions at known concentration of formaldehyde. […]
Along with activity on propane, P450PMO also hydroxylates ethane (TTN˜2,500), despite ethane's higher C—H bond energy (101.0 kcal mol^−1 versus 98.6 kcal mol^−1 for propane). […] Reactions with purified P450 variants and the halomethanes were analyzed for formaldehyde formation (FIG. 42). […] Activity on chloromethane was detected at lower levels (0.5-1% of propane activity) and in fewer P450 variants. […]

Changes are numbered by the printed parent chain. Numbers in names are those of the source.

B1: 35-E11: P450 BM-3 variant, SEQ ID NO:7: 53-5H substitutions plus E464G and I710T (protein)
chain: TIKEMPQPKTFGELKNLPLLNTDKPVQALMKIADELGEIFKFEAPGCVTRYLSSQRLIKEACDESRFDKNLSQALKFFRDFSGDGLFTSWTHEINWKKAHNILLPSFSQQAMKGYHAMMVDIAVQLVQKWERLNADEHIEVSEDMTRLTLDTIGLCGFNYRFNSFYRDQPHPFIISMVRALDEVMNKLQRANPDDPAYDENKRQCQEDIKVMNDLVDKIIADRKARGEQSDDLLTQMLNGKDPETGEPLDDGNISYQIITFLIAGHETTSGLLSFALYFLVKNPHVLQKVVEEAARVLVDPVPSYKQVKQLKYVGMVLNEALRLWPTFPAFSLYAKEDTVLGGEYPLEKGDEVMVLIPQLHRDKTIWGDDVEEFRPERFENPSAIPQHAFKPFGNGQRACIGQQFALHEATLVLGMMLKHFDFEDHTNYELDIKETLTLKPEGFVVKAKSKKIPLGGIPSPSTGQSAKKVRKKAENAHNTPLLVLYGSNMGTAEGTARDLADIAMSKGFAPQVATLDSHAGNLPREGAVLIVTASYNGHPPDNAKQFVDWLDQASADEVKGVRYSVFGCGDKNWATTYQKVPAFIDETLAAKGAENIADRGEADASDDFEGTYEEWREHMWSDVAAYFNLDIENSEDNKSTLSLQFVDSAADMPLAKMHGAFSTNVVASKELQQPGSARSTRHLEIELPKEASYQEGDHLGVIPRNYEGTVNRVTARFGLDASQQIRLEAEEEKLAHLPLAKTVSVEELLQYVELQDPVTRTQLRAMAAKTVCPPHKVELEALLEKQAYKEQVLAKRLTMLELLEKYPACEMKFSEFIALLPSIRPRYYSISSSPRVDEKQASITVSVVSGEAWSGYGEYKGIASNYLAELQEGDTITCFISTPQSEFTLPKDPETPLIMVGPGTGVAPFRGFVQARKQLKEQGQSLGEAHLYFGCRSPHEDYLYQEELENAQSEGIITLHTAFSRMPNQPKTYVQHVMEQDGKKLIELLDQGAHFYICGDGSQMAPAVEATLMKSYADVHQVSEADARLWLQQLEEKGRYAKDVWAG
modifications: mutant P450 35-E11 protein sequence
Regarding B1, in data set [1], the “shift from low- to high-spin ferric P450” value is on record as “behaved identically”.

B2: P450PMO: P450 BM-3 variant, SEQ ID NO:125; 7-7 plus G443A and D698G; propane monooxygenase (protein)
chain: B1 chain with L52I, A74E, S82G, L188P, I366V, G443A, D698G
modifications: Mutant P450PMO protein sequence
notes: 7-7 plus G443A and D698G; propane monooxygenase
For B2, the “turnover rates, halomethane dehalogenase activities” value in data set [2] (CH3Cl, CH3Br, CH3I, estimated from 30 minute-reactions) was 0.5-5 min^−1. Further, in data set [2] (formaldehyde formation), the bromomethane dehalogenase activity is reported as 1-5 % of the propane activity.

The values are drawn from patent publication US12258605B2, “Alkane oxidation by modified hydroxylases” (The California Institute of Technology, priority 2005, dated 2025).
